Legend:
cab39_human CAB39 [1] = molecular target: cab39_human CAB39 (UniProt Q9Y376)
cab39_human CAB39 [2] = molecular target: cab39_human CAB39 (UniProt Q9Y376); remark: listed apart in the source
cab39_human CAB39 [3] = molecular target: cab39_human CAB39 (UniProt Q9Y376); remark: listed apart in the source
cab39_human CAB39 [4] = molecular target: cab39_human CAB39 (UniProt Q9Y376); remark: listed apart in the source

Chain of cab39_human CAB39 (Q9Y376 whole entry): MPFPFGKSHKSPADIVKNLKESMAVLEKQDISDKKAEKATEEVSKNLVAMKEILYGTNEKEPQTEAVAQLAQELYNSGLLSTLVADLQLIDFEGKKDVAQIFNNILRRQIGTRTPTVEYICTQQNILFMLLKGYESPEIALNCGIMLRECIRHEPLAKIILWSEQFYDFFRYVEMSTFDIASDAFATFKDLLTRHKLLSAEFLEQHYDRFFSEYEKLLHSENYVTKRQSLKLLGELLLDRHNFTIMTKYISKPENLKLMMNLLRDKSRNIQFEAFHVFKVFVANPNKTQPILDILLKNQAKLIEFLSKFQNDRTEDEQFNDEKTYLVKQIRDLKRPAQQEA
Chain of Serine/threonine-protein kinase 26 (Homo sapiens), Q9P289-1 L90E;L95E (Q9P289 whole entry L90E/L95E): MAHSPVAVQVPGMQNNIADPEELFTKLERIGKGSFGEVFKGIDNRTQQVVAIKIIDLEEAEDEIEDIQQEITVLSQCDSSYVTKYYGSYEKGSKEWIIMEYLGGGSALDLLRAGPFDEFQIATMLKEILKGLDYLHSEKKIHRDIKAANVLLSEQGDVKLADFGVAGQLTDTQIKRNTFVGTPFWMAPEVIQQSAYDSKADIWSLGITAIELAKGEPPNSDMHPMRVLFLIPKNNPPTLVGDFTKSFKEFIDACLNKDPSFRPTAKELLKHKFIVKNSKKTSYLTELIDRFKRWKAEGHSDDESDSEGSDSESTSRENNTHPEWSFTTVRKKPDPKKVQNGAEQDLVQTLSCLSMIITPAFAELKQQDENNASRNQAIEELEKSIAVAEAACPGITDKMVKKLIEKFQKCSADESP
Chain of Serine/threonine-protein kinase 26 (Homo sapiens), Q9P289-1 Y134A (Q9P289 whole entry Y134A): as the sequence (Q9P289 whole entry L90E/L95E) above, with E90L, E95L, Y134A counted along it
Chain of Serine/threonine-protein kinase 26 (Homo sapiens), Q9P289-1 W324E (Q9P289 whole entry W324E): as the sequence (Q9P289 whole entry L90E/L95E) above, with E90L, E95L, W324E counted along it
Chain of Serine/threonine-protein kinase 26 (Homo sapiens), Q9P289-1 L95E (Q9P289 whole entry L95E): as the sequence (Q9P289 whole entry L90E/L95E) above, with E90L counted along it
Chain of Serine/threonine-protein kinase 26 (Homo sapiens), Q9P289-1 M225E (Q9P289 whole entry M225E): as the sequence (Q9P289 whole entry L90E/L95E) above, with E90L, E95L, M225E counted along it
Chain of Serine/threonine-protein kinase 26 (Homo sapiens), Q9P289-1 E58A (Q9P289 whole entry E58A): as the sequence (Q9P289 whole entry L90E/L95E) above, with E58A, E90L, E95L counted along it
Chain of Serine/threonine-protein kinase 26 (Homo sapiens), Q9P289-1 D242A;K276A (Q9P289 whole entry D242A/K276A): as the sequence (Q9P289 whole entry L90E/L95E) above, with E90L, E95L, D242A, K276A counted along it
Chain of Serine/threonine-protein kinase 26 (Homo sapiens), Q9P289-1 E138A (Q9P289 whole entry E138A): as the sequence (Q9P289 whole entry L90E/L95E) above, with E90L, E95L, E138A counted along it
Chain of Serine/threonine-protein kinase 26 (Homo sapiens), Q9P289-1 L228E (Q9P289 whole entry L228E): as the sequence (Q9P289 whole entry L90E/L95E) above, with E90L, E95L, L228E counted along it
Chain of Serine/threonine-protein kinase 26 (Homo sapiens), Q9P289-1 F229A (Q9P289 whole entry F229A): as the sequence (Q9P289 whole entry L90E/L95E) above, with E90L, E95L, F229A counted along it
Chain of Serine/threonine-protein kinase 26 (Homo sapiens), Q9P289-1 D162A (Q9P289 whole entry D162A): as the sequence (Q9P289 whole entry L90E/L95E) above, with E90L, E95L, D162A counted along it

effect of a mutation on the interaction (cab39_human CAB39 [2]) | effect of a mutation on the interaction (cab39_human CAB39 [3]) | effect of a mutation on the interaction (cab39_human CAB39 [4]) | Substance | other results
 | decreasing interaction strength |  | Serine/threonine-protein kinase 26 (Homo sapiens), Q9P289-1 E58A | 
 | decreasing interaction strength | disrupting interaction strength | Serine/threonine-protein kinase 26 (Homo sapiens), Q9P289-1 L95E | 
 | decreasing interaction strength | disrupting interaction strength | Serine/threonine-protein kinase 26 (Homo sapiens), Q9P289-1 Y134A | 

Further lines, the substance ahead of its results:

Substance | effect of a mutation on the interaction (cab39_human CAB39 [2]) | effect of a mutation on the interaction (cab39_human CAB39 [3]) | effect of a mutation on the interaction (cab39_human CAB39 [4]) | other results
Serine/threonine-protein kinase 26 (Homo sapiens), Q9P289-1 D162A |  |  |  | effect of a mutation on the interaction (cab39_human CAB39 [1]): decreasing interaction strength
Serine/threonine-protein kinase 26 (Homo sapiens), Q9P289-1 D242A;K276A | decreasing interaction strength |  |  | 
Serine/threonine-protein kinase 26 (Homo sapiens), Q9P289-1 L90E;L95E |  | decreasing interaction strength | disrupting interaction strength | 
Serine/threonine-protein kinase 26 (Homo sapiens), Q9P289-1 E138A |  |  | decreasing interaction strength | 
Serine/threonine-protein kinase 26 (Homo sapiens), Q9P289-1 L228E | decreasing interaction strength |  |  | 
Serine/threonine-protein kinase 26 (Homo sapiens), Q9P289-1 W324E |  | decreasing interaction strength | disrupting interaction strength | 
Serine/threonine-protein kinase 26 (Homo sapiens), Q9P289-1 M225E | decreasing interaction strength |  |  | 
Serine/threonine-protein kinase 26 (Homo sapiens), Q9P289-1 F229A | decreasing interaction strength |  |  | 
